US9618524B2, “Method, composition, isolation and identification of a plaque particle and related biomarker” (Plaxgen Inc., priority 2012, dated 2017)

B1: Thioredoxin (protein)
chain: VKQIESKTAFQEALDAAGDKLVVVDFSATWCGPCKMIKPFFHSLSEKYSNVIFLEVDVDDCQDVASECEVKCMPTFQFFKKGQKVGEFSGANKEKLEATINELV
B2: Heterogeneous nuclear ribonucleoprotein R (protein)
chain: ANQVNGNAVQLKEEEEPMDTSSVTHTEHYKTLIEAGLPQKVAERLDEIFQTGLVAYVDLDERAIDALREFNEEGALSVLQQFKESDLSHVQNKSAFLCGVMKTYRQREKQGSKVQESTKGPDEAKIKALLERTGYTLDVTTGQRKYGGPPPDSVYSGVQPGIGTEVFVGKIPRDLYEDELVPLFEKAGPIWDLRLMMDPLSGQNRGYAFITFCGKEAAQEAVKLCDSYEIRPGKHLGVCISVANNRLFVGSIPKNKTKENILEEFSKVTEGLVDVILYHQPDDKKKNRGFCFLEYEDHKSAAQARRRLMSGKVKVWGNVVTVEWADPVEEPDPEVMAKVKVLFVRNLATTVTEEILEKSFSEFGKLERVKKLKDYAFVHFEDRGAAVKAMDEMNGKEIEGEEIEIVLAKPPDKKRKERQAARQASRSTAYEDYYYHPPPRMPPPIRGRGRGGGRGGYGYPPDYYGYEDYYDDYYGYDYHDYRGGYEDPYYGYDDGYAVRGRGGGRGGRGAPPPPRGRGAPPPRGRAGYSQRGAPLGPPRGSRGGRGGPAQQQRGRGSRGSRGNRGGNVGGKRKADGYNQPDSKRRQTNNQQNWGSQPIAQQPLQQGGDYSGNYGYNNDNQEFYQDTYGQQWK
B3: Serpin B3 (protein)
chain: MNSLSEANTKFMFDLFQQFRKSKENNIFYSPISITSALGMVLLGAKDNTAQQIKKVLHFDQVTENTTGKAATYHVDRSGNVHHQFQKLLTEFNKSTDAYELKIANKLFGEKTYLFLQEYLDAIKKFYQTSVESVDFANAPEESRKKINSWVESQTNEKIKNLIPEGNIGSNTTLVLVNAIYFKGQWEKKFNKEDTKEEKFWPNKNTYKSIQMMRQYTSFHFASLEDVQAKVLEIPYKGKDLSMIVLLPNEIDGLQKLEEKLTAEKLMEWTSLQNMRETRVDLHLPRFKVEESYDLKDTLRTMGMVDIFNGDADLSGMTGSRGLVLSGVLHKAFVEVTEEGAEAAAATAVVGFGSSPTSTNEEFHCNHPFLFFIRQNKTNSILFYGRFSSP
B4: Selenoprotein P (protein)
chain: ESQDQSSLCKQPPAWSIRDQDPMLNSNGSVTVVALLQASUYLCILQASKLEDLRVKLKKEGYSNISYIVVNHQGISSRLKYTHLKNKVSEHIPVYQQEENQTDVWTLLNGSKDDFLIYDRCGRLVYHLGLPFSFLTFPYVEEAIKIAYCEKKCGNCSLTTLKDEDFCKRVSLATVDKTVETPSPHYHHEHHHNHGHQHLGSSELSENQQPGAPNAPTHPAPPGLHHHHKHKGQHRQGHPENRDMPASEDLQDLQKKLCRKRCINQLLCKLPTDSELAPRSUCCHCRHLIFEKTGSAITUQCKENLPSLCSUQGLRAEENITESCQURLPPAAUQISQQLIPTEASASURUKNQAKKUEUPSN
B5: Immunoglobulin lambda-like polypeptide 1 (protein)
chain: LLRPTAASQSRALGPGAPGGSSRSSLRSRWGRFLLQRGSWTGPRCWPRGFQSKHNSVTHVFGSGTQLTVLSQPKATPSVTLFPPSSEELQANKATLVCLMNDFYPGILTVTWKADGTPITQGVEMTTPSKQSNNKYAASSYLSLTPEQWRSRRSYSCQVMHEGSTVEKTVAPAECS
B6: Isoform 2 of RNA-binding protein 39 (protein)
chain: ADDIDIEAMLEAPYKKDENKLSSANGHEERSKKRKKSKSRSRSHERKRSKSKERKRSRDRERKKSKSRERKRSRSKERRRSRSRSRDRRFRGRYRSPYSGPKFNSAIRGKIGLPHSIKLSRRRSRSKSPFRKDKSPVREPIDNLTPEERDARTVFCMQLAARIRPRDLEEFFSTVGKVRDVRMISDRNSRRSKGIAYVEFVDVSSVPLAIGLTGQRVLGVPIIVQASQAEKNRAAAMANNLQKGSAGPMRLYVGSLHFNITEDMLRGIFEPFGRIESIQLMMDSETGRSKGYGFITFSDSECAKKALEQLNGFELAGRPMKVGHVTERTDASSASSFLDSDELERTGIDLGTTGRLQLMARLAEGTGLQIPPAAQQALQMSGSLAFGAVADLQTRLSQQTEASALAAAASVQPLATQCFQLSNMFNPQTEEEVGWDTEIKDDVIEECNKHGGVIHIYVDKNSAQGNVYVKCPSIAAAIAAVNALHGRWFAGKMITAAYVPLPTYHNLFPDSMTATQLLVPSRR
B7: Isoform 2 of C4b-binding protein beta chain (protein)
chain: ASDEHCPELPPVDNSIFVAKEVEGQILGTYVCIKGYHLVGKKTLFCNASKEWDNTTTECRLGHCPDPVLVNGEFSSSGPVNVSDKITFMCNDHYILKGSNRSQCLEDHTWAPPFPICKSRDCDPPGNPVHGYFEGNNFTLGSTISYYCEDRYYLVGVQEQQCVDGEWSSALPVCKLIQEAPKPECEKALLAFQESKNLCEAMENFMQQLKESGMTMEELKYSLELKKAELKAKLL
B8: Apolipoprotein F (protein)
chain: SLPTEDCENEKEQAVHNVVQLLPGVGTFYNLGTALYYATQNCLGKARERGRDGAIDLGYDLLMTMAGMSGGPMGLAISAALKPALRSGVQQLIQYYQDQKDANISQPETTKEGLRAISDVSDLEETTTLASFISEVVSSAPYWGWAIIKSYDLDPGAGSLEI
B9: Cluster of Keratin, type II cytoskeletal 2 epidermal (protein, UniProt P35908 1-639, looked up)
Keratin, type II cytoskeletal …: MSCQISCKSRGRGGGGGGFRGFSSGSAVVSGGSRRSTSSFSCLSRHGGGGGGFGGGGFGSRSLVGLGGTKSISISVAGGGGGFGAAGGFGGRGGGFGGGSSFGGGSGFSGGGFGGGGFGGGRFGGFGGPGGVGGLGGPGGFGPGGYPGGIHEVSVNQSLLQPLNVKVDPEIQNVKAQEREQIKTLNNKFASFIDKVRFLEQQNQVLQTKWELLQQMNVGTRPINLEPIFQGYIDSLKRYLDGLTAERTSQNSELNNMQDLVEDYKKKYEDEINKRTAAENDFVTLKKDVDNAYMIKVELQSKVDLLNQEIEFLKVLYDAEISQIHQSVTDTNVILSMDNSRNLDLDSIIAEVKAQYEEIAQRSKEEAEALYHSKYEELQVTVGRHGDSLKEIKIEISELNRVIQRLQGEIAHVKKQCKNVQDAIADAEQRGEHALKDARNKLNDLEEALQQAKEDLARLLRDYQELMNVKLALDVEIATYRKLLEGEECRMSGDLSSNVTVSVTSSTISSNVASKAAFGGSGGRGSSSGGGYSSGSSSYGSGGRQSGSRGGSGGGGSISGGGYGSGGGSGGRYGSGGGSKGGSISGGGYGSGGGKHSSGGGSRGGSSSGGGYGSGGGGSSSVKGSSGEAFGSSVTFSFR

Assays:
Experiment in all cases: Mass spectroscopy proteomics, semi-quantitative binding affinity of serum proteins (plaqueproteome, Table 2)
Conditions in all cases: higher number = stronger affinity
[1] = molecular target: T1, alpha-synuclein plaque particles (Homo sapiens, UniProt P37840)
T1 construct: 140 amino acids polypeptide
How it was run: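 AD-subject plasma or serum (800 μL of 50%) mixed with 30 μg preformed alpha-synuclein aggregates for 1 h at 37 °C; Thioflavin S-positive particles isolated by flow sorting. After reduction, acrylamide alkylation and overnight tryptic digestion, serum proteins identified by MS/MS with Sequest and Scaffold.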

[2] = molecular target: T2, Abeta-42 plaque particles (Homo sapiens, UniProt P05067)
T2 construct: Abeta 1-42
How it was run: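 AD patient serum or plasma (50% in PBS) was incubated with Abeta-42 aggregates (30 μg) for 1 h at 37 °C, then stained with Thioflavin S for 30 min. Labeled particles were FACS-sorted, trypsin/Lys-C digested overnight and analyzed by MS/MS. Sequest searched human UniProt; Scaffold/Protein Prophet validated the identifications.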

[3] = test system: Low density cholesterol (Chl small) plaque particles; design: species or system human
How it was run: (§1)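 Proteins bound to flow-sorted cholesterol plaque particles (large/high-density or small/low-density gates) were identified by LC-MS/MS after trypsin digestion. Particles were formed from 50% atherosclerotic serum or plasma with 30 μg cholesterol aggregates, 1 h, 37 °C. Sequest human database search; Scaffold validation.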

[4] = test system: High Density cholesterol (Chl Large) plaque particles; design: species or system human
How it was run: as §1

Tau plaque particles = test system: Tau plaque particles; design: species or system human
How it was run: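 Serum or plasma proteins captured on Thioflavin S-labelled Tau plaque particles (Tau-74, Tau-275 oligomers preformed in PBS at 37° C for 2 h; 1 h co-incubation at 37° C) were isolated by FACS sorting, then tryptically digested and identified by MS/MS (Sequest, human UniProt, strict trypsin).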

Molecule	Semi-quantitative analysis of proteins binding to different plaque particles: Synuclein [1]	Semi-quantitative analysis of proteins binding to different plaque particles: Abeta-42 [2]	Semi-quantitative analysis of proteins binding to different plaque particles: Chl small [3]	Semi-quantitative analysis of proteins binding to different plaque particles: Chl Large [4]	Semi-quantitative analysis of proteins binding to different plaque particles: Tau (Tau plaque particles)
B1	0	2	0	0	0
B2	0	2	0	0	0
B3	0	2	0	0	0
B4	1	0	0	0	0
B5	0	0	1	0	0
B6	0	2	0	0	0
B7	0	0	1	0	0
B8	2	0	1	0	1
B9	3	171	20	14	24
